According to article PMC10570038:

Biological target: RBPMS-A dC20 (rat) (UniProt A0A8I6G705)
Assay: EMSA
Details: apparent; EMSA: 10 nM RNA, 25 mM HEPES pH 7.9, 100 mM KCl, 2 mM MgCl2, 0.625 mM DTT, 0.1 mg/ml BSA, 5% glycerol, 30 C 1 h, then 5 mg/ml heparin 10 min; 5% native PAGE in …

Chain of RBPMS-A dC20 (rat) (A0A8I6G705 1-177): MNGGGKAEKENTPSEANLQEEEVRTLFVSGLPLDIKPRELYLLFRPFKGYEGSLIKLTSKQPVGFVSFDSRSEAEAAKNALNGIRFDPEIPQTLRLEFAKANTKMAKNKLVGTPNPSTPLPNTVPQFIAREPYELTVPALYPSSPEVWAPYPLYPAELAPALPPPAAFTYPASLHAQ

GUCUACGCACCCUCAACCCGCACCUUGCGGGAUG [(CAC)2]
Kd: 2500 nM
